According to article PMC10923064:

Tests used:
[1] = biological target: T1, human RPA (RPA70/RPA32/RPA14) (human, UniProt P27694;P15927;P35244 1-616;1-270;1-121); experiment: fluorescence anisotropy
[2] = biological target: T1, human RPA (RPA70/RPA32/RPA14); experiment: stopped-flow Trp fluorescence

T1 sequence (P27694 whole entry, chain 1 of 3): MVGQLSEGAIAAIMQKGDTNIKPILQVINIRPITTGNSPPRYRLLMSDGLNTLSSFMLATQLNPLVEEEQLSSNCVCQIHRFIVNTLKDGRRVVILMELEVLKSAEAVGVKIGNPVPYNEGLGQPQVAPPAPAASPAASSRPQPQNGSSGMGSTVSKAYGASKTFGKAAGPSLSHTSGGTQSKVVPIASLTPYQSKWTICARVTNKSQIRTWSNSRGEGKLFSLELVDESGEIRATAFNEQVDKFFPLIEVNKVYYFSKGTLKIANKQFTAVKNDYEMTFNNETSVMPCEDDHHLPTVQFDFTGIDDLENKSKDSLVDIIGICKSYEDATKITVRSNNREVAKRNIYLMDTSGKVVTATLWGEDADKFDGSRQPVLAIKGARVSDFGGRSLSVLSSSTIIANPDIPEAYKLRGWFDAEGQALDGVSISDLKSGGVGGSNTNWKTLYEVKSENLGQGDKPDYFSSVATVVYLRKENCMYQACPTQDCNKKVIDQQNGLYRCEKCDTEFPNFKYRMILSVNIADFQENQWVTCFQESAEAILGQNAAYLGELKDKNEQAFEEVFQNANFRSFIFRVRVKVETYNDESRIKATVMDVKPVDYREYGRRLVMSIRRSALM
T1 sequence (P15927 whole entry, chain 2 of 3): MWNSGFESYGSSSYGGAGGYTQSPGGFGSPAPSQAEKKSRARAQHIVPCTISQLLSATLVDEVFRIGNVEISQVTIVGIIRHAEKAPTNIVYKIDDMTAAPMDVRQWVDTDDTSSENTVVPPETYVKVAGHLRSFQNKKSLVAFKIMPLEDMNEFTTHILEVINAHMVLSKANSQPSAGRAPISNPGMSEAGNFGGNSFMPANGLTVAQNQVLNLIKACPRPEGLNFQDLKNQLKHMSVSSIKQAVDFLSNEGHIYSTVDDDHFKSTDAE
T1 sequence (P35244 whole entry, chain 3 of 3): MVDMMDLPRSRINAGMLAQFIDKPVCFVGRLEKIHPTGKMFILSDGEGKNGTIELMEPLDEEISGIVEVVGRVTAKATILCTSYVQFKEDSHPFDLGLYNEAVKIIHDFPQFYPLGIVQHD

Binder	binding result [1]	binding result [2]
TTTTTTTTTTTTTTTTTTTTTTTTTTTTTTTTTTT (ssDNA) [5'-FAM-(dT)35]	binds	
TTTTTTTTTTTTTTTTTTTTTTTTTTTTTTTTTTT (ssDNA) [(dT)35]		binds
